From patent US7067484 (Genentech, dated 2006) come the findings set out here.

This assay addresses CD4-IgG (human, UniProt P01730 26-205). As to the kind of experiment: immunoaffinity chromatography of BT20 conditioned medium on CD4-IgG-Protein A precolumn, SDS-PAGE with silver staining. As for the experimental part: BT20 cells were grown to 80% confluence in 150 mm plates, harvested by 5 mM EDTA in PBS, and seeded into […] roller bottles with growth medium. After 1 week of growth the cells were nearly confluent. The growth medium was removed, the cells washed with PBS, and serum-free growth medium was added. After 5 days, conditioned medium was harvested (12 liters from 72 roller bottles), centrifuged, sterile filtered, concentrated in a 12 kD molecular weight cutoff Amicon filter, and stored at −70° C.
200 ml of BT20 conditioned media, concentrated as described above from 12 liters and frozen, was thawed, centrifuged at 17,000 rpm in a Sorvall SS34 rotor, and filtered through a 0.45 µm filter to clarify the solution. The 200 ml was pumped through a 2.0 ml CD4-IgG—Protein A (CD4-IgG covalently linked to Protein A through IgG moiety) immunoaffinity precolumn and a 1.0 ml REK7-IgG—Protein A (REK7-IgG covalently linked to Protein A through IgG moiety) immunoaffinity column in tandem with a flow rate of 0.5 ml/min. All chromatography was carried out at 4° C. […] The eluates were brought to pH 7.4 by the addition of 50 mM potassium phosphate, and an aliquot of each was analyzed by sodium dodecycl sulfate (SDS)—polyacrylamide gel electrophoresis (PAGE). […]

B1: AL-1 (REK7 ligand) purified from BT20 cell conditioned medium (ligand)
chain: QDPGSKAVADRYAVYWNSSNPRFQRGDYHIDVCINDYLDVFCPHYEDSVPEDKTERYVLYMVNFDGYSACDHTSKGFKRWECNRPHSPNGPLKFSEKFQLFTPFSLGFEFRPGREYFYISSAIPDNGRRSCLKLKVFVRPTNSCMKTIGVHDRVFDVNDKVENSLEPADDTVHESAEPSRGEN
notes: Soluble forms in serum-free conditioned medium of human BT20 cells; The 27,000 and 25,000 Dalton proteins appeared to be proteolytically processed forms of the 28,000 Dalton protein; also called 28,000, 27,000 and 25,000 Dalton proteins; BT20 cell-derived AL-1
As for B1, the binding result was “no binding”.
